According to publication PMC10058294, “Interaction of SARS-CoV-2 Nucleocapsid Protein and Human RNA Helicases DDX1 and DDX3X Modulates Their Activities on Double-Stranded RNA”:
Where “and” joins values, the source holds several entries; their conditions need not be identical. Identical values can stand only once.

B1: 18/38 mer FAM partially dsRNA (dsRNA)
RNA 1: AUGAAGGUUUGAGUUGAGUGGAGAUAGUGGAGGGUAGU
RNA 2: CUCAACUCAAACCUUCAU
B2: ssRNA 18 mer FAM (ssRNA)
RNA: CUCAACUCAAACCUUCAU

Key:
[1] = target: T1, SARS-CoV-2 nucleocapsid protein (Np) (SARS-CoV-2, UniProt P0DTC9 1-419); test: EMSA; conditions: protein: recombinant; tags: His (pET30a(+), Ni-NTA purified); chain copies: 2; label: 5'-FAM on the 18 mer
[2] = target: T1, SARS-CoV-2 nucleocapsid protein (Np); test: EMSA; apparent, cooperative fit; conditions: protein: recombinant; tags: His (pET30a(+), Ni-NTA purified); chain copies: 2; label: 5'-FAM on the 18 mer
[3] = target: SARS-CoV-2 nucleocapsid protein (Np);DDX1 (SARS-CoV-2;Homo sapiens, UniProt P0DTC9;Q92499 1-419;1-740, |); test: EMSA; Np titrated with fixed DDX1; conditions: protein: recombinant;recombinant; tags: His (pET30a(+), Ni-NTA purified);pET30a(+) vector; label: 5'-FAM on the 18 mer
[4] = target: SARS-CoV-2 nucleocapsid protein (Np);DDX3X (SARS-CoV-2;Homo sapiens, UniProt P0DTC9;O00571 1-419;1-662, |); test: EMSA; Np titrated with fixed DDX3X; conditions: protein: recombinant;recombinant; tags: His (pET30a(+), Ni-NTA purified);pET30a(+) vector; label: 5'-FAM on the 18 mer
[5] = target: T1, SARS-CoV-2 nucleocapsid protein (Np); test: EMSA; time course; conditions: protein: recombinant; tags: His (pET30a(+), Ni-NTA purified); chain copies: 2; label: 5'-FAM; single strand

Binder | Kd [1] | Kd [2] | Kd [3] | Kd [4] | binding result [5]
B1 | 193 nM and 300 nM | 170 nM | 40 nM | 80 nM | –
B2 | – | – | – | – | binds
